In paper doi:10.1101/2025.11.05.686565 (bioRxiv, 2025):

Target: the molecule itself
Test: cryo-EM structure

B1: full-length, strep-tagged human Wdr37 (natural protein, UniProt Q9Y2I8 1-494, looked up)
chain: MPTESASCSTARQTKQKRKSHSLSIRRTNSSEQERTGLPRDMLEGQDSKLPSSVRSTLLELFGQIEREFENLYIENLELRREIDTLNERLAAEGQAIDGAELSKGQLKTKASHSTSQLSQKLKTTYKASTSKIVSSFKTTTSRAACQLVKEYIGHRDGIWDVSVAKTQPVVLGTASADHTALLWSIETGKCLVKYAGHVGSVNSIKFHPSEQLALTASGDQTAHIWRYAVQLPTPQPVADTSISGEDEVECSDKDEPDLDGDVSSDCPTIRVPLTSLKSHQGVVIASDWLVGGKQAVTASWDRTANLYDVETSELVHSLTGHDQELTHCCTHPTQRLVVTSSRDTTFRLWDFRDPSIHSVNVFQGHTDTVTSAVFTVGDNVVSGSDDRTVKVWDLKNMRSPIATIRTDSAINRINVCVGQKIIALPHDNRQVRLFDMSGVRLARLPRSSRQGHRRMVCCSAWSEDHPVCNLFTCGFDRQAIGWNINIPALLQEK
- stoichiometry N: 2
